The record followed here is publication PMC12612047 (Nature Communications, 2025).

Test [1] addresses T1, purified, catalytically inactive CNA/B containing CNA_(Trunc+H151Q) (UniProt Q08209 1-391; P63098 1-170, H151Q). In words: NMR titration.
In test [2] the target is T1, purified, catalytically inactive CNA/B …. Put plainly: fluorescence polarisation. For orientation: In fluorescence polarisation assays a small probe gives low polarisation when free and higher when bound to something large.
Target sequence in this assay (Q08209 1-391 H151Q, chain 1 of 2): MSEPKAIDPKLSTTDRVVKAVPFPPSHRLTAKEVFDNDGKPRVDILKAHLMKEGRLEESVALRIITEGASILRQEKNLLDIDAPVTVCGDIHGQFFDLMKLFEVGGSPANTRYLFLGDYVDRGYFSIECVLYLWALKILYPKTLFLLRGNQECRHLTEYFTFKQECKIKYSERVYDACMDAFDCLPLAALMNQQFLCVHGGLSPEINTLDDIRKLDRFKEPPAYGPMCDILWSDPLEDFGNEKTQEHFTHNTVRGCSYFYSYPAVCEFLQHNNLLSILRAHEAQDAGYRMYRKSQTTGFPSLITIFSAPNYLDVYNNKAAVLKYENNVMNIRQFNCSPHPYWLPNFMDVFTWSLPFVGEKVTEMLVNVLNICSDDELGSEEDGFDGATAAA
Target sequence in this assay (P63098 whole entry, chain 2 of 2): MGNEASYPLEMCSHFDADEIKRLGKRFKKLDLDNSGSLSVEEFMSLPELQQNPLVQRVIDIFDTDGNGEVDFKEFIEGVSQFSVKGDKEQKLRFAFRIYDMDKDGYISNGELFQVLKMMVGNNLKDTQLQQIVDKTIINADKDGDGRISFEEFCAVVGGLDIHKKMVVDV

B1: full-length CLMB (76 residues) expressed in E. coli (natural protein)
chain: MGLKMSCLKGFQMCVSSSSSSHDEAPVLNDKHLDVPDIIITPPTPTGMMLPRDLGSTVWLDETGSCPDDGEIDPEA
modifications: uniformly ^15N-labeled in the NMR titrations; not phosphorylated
As for B1, the binding result in test [1] is “binds”.
As for SHDEAPVLNDKHADAPDIIITPPTPTGMML (phosphothreonine at 44) [pCLMB_(LxVMut) peptide (residues 21-50, pThr44), unlabeled], in test [2], the binding result is “binds”.
Same read-out and setting: next, SHDEAPVLNDKHLDVPDIIITPPTPTGMML [CLMBWT peptide (residues 21-50), not phosphorylated, unlabeled]: “binds”.
